Measured values published in US20260098858A1 (NAVROGEN, published 2026).

B1: secreted recombinant monomeric heavy chain CH2 domain (other, human, UniProt P01857 114-223, looked up)
chain: APELLGGPSVFLFPPKPKDTLMISRTPEVTCVVVDVSHEDPEVKFNWYVDGVEVHNAKTKPREEQYNSTYRVVSVLTVLHQDWLNGKEYKCKVSNKALPAPIEKTISKAK
notes: domain: CH2
B2: soluble human ICAM-1/CD54 (receptor)
chain: QTSVSPSKVILPRGGSVLVTCSTSCDQPKLLGIETPLPKKELLLPGNNRKVYELSNVQEDSQPMCYSNCPDGQSTAKTFLTVYWTPERVELAPLPSWQPVGKNLTLRCQVEGGAPRANLTVVLLRGEKELKREPAVGEPAEVTTTVLVRRDHHGANFSCRTELDLRPQGLELFENTSAPYQLQTFVLPATPPQLVSPRVLEVDTQGTVVCSLDGLFPVSEAQVHLALGDQRLNPTVTYGNDSFSAKASVSVTAEDEGTQRLTCAVILGNQSQETLQTVTIYSFPAPNVILTKPEVSEGTEVTVKCEAHPRAKVTLNGVPAQPLGPRAQLLLKATPEDNGRSFSCSATLEVAGQLIHKNQTRELRVLYGPRLDERDCPGNWTWPENSQQTPMCQAWGNPLPELKCLKDGTFPLPIGESVTVTRDLEGTYLCRARSTQGEVTRKVTVNVLSPRYE
notes: also called sICAM-1; SICAM-1

Experiments:
[1] = molecular target: B2; assay: ELISA: immobilized monomeric CH2 domain, biotinylated sICAM-1 probe (FIG. 4B)
Description: (§1) Experiments represent a minimum of triplicate wells. Statistical analysis was done using the Student's T-test.
First, fragment domain analysis was performed. […] Briefly, plates were coated with 100 μL of 2.5 μg/mL of full length IgG1 antibody or fragments for 1 hour at room temperature in 0.05 M carbonate buffer. Plates were washed in phosphate buffered saline (PBS) plus 0.1% tween-20 (PBS-T) and blocked with 200 uLs of PBS plus 1% BSA. […] Plates were then washed three times with PBS-T, and quantified using TMB colorimetric substrate (Pierce). Reactions were stopped using 0.1N H₂SO₄ and A450 quantitated using a Varioskan plate reader.

human serum albumin = molecular target: T1, human serum albumin (human, UniProt P02768 25-609); assay: ELISA: immobilized control protein, biotinylated sICAM-1 probe (FIG. 1B)
T1 construct: also called HSA
Excerpt: as §1

Binder	binding result [1]	binding result (human serum albumin)
B1	no binding (tested: 0.5 µg/mL biotinylated sICAM-1)	
B2		no binding (tested: 5 µg/mL biotinylated sICAM-1)
